Primed or numbered codes have the meaning given here. Where no end group is shown, it is not given here. [ ]: non-standard residue; d: D form. Dhb′ = not defined here; Dha = C=C(N)C(=O)O
Assays:
Assay type in all cases: cell-based, Lactobacillus sakei
L. sakei [1] = assay: Thermal stability test, antimicrobial activity after heat treatment, spot-on-lawn (Experiment 7); design: key to Antimicrobial activity after heat treatment / Antimicrobial activity, Untreated: -: Without antimicrobial activity; +: With antimicrobial activity; ++: With strong antimicrobial activity; +++: With very strong antimicrobial activity; details: for thermal stability of antimicrobial activity: result in words
Description: (§1) Like in Experiment 1A, antimicrobial activity of the antimicrobial peptide was evaluated by a spot-on-lawn method. As the test bacteria, Lactobacillus sakei (NBRC15893) was used. After overnight culturing, the test bacteria were mixed and diluted with Lactobacilli AOAC agar so as to achieve a density of 4×10^7 CFU/mL, and the resultant was spread over an MRS plate containing 2% agar. The test liquid was spotted on the test bacteria, and incubated overnight at 30°C. The size of the growth inhibition circle of L. sakei was evaluated as the antimicrobial activity.
(§2) Nisin A used in Examples was Nisin from Lactococcus lactis 2.5% (manufactured by Sigma-Aldrich corporation) that was used after concentration and purification. The details of nisin A are as described by J. C. Slootweg et al., J. Pept. Sci., 19, 692-699(2013). To 1 g of commercially available 2.5% nisin A (containing about 25 mg of nisin A), 25 mL of water was added, and the resultant was stirred for 15 minutes at room temperature. Centrifugation (15 minutes, 2500 rpm) was carried out to separate off the precipitate, and only the supernatant was transferred to another tube. To the resulting solution, 20 mL of dichloromethane was added. To collect the white precipitate that was present between the aqueous layer and the organic layer, the upper layer and the lower layer were removed. Another round of centrifugation (15 minutes, 2500 rpm) was carried out to remove, again, the upper layer and the lower layer. The intermediate layer that was sought after was dried in a reduced-pressure centrifuge and re-dissolved in 7.45 mL of water, and thereby a 1-mM purified Nisin product was obtained. The resulting purified product was used as nisin A in each stability test.
The test solution was subjected to heat treatment at 80°C for 10 minutes, or at 80°C for 30 minutes, or at 100°C for 10 minutes, or at 100°C for 30 minutes, or at 121°C for 15 minutes. By the same spot-on-lawn method as adopted in the above-mentioned antimicrobial activity test, the polypeptide was added in drops to form a growth inhibition circle of L. sakei, and thereby the antimicrobial activity of the polypeptide after heat treatment was evaluated. As a positive control (PC), culture supernatant of a nisin A-producing lactic acid bacterium (Lactococcus lactis ATCC-1 1454 strain) was used. A sample without the heat process was used as an untreated control.

L. sakei [2] = assay: Oxidation stability test, antimicrobial activity after hydrogen peroxide treatment, spot-on-lawn (Experiment 8); design: key to Antimicrobial activity, Before oxidation treatment / Antimicrobial activity, After oxidation treatment: -: Without antimicrobial activity; +: With antimicrobial activity; ++: With strong antimicrobial activity; +++: With very strong antimicrobial activity; details: for Antimicrobial activity, After oxidation treatment: 1-mM solution treated with 10 mM hydrogen peroxide at 40°C for 6 hours
Description: as §1, §2
The method of oxidation treatment is as described by Toshihiro T. et al., J. Proteome Res., 12, 753-762(2013). To a 1-mM solution of lactobacin A or nisin A, hydrogen peroxide was added to achieve a final concentration of 10 mM, followed by reaction at 40°C for 6 hours. After the completion of reaction, the reaction liquid was diluted with water to achieve a polypeptide concentration of 10 µM or 1 µM. By the same spot-on-lawn method as adopted in the above-mentioned antimicrobial activity test, the polypeptide was added in drops to form a growth inhibition circle of L. sakei, and thereby the antimicrobial activity of the polypeptide after oxidation treatment was evaluated. Development of the oxidation reaction was calculated as a relative value of the peak area obtained by LC/MS measurement of the oxidation-treated test solution relative to the non- oxidation-treated test solution. As a positive control (PC), culture supernatant of a nisin A-producing lactic acid bacterium (Lactococcus lactis ATCC-11454 strain) was used.

L. sakei [3] = assay: Wide pH-range stability test, antimicrobial activity after pH treatment, spot-on-lawn (Experiment 6); design: key to Antimicrobial activity after pH treatment / Antimicrobial activity, Untreated: -: Without antimicrobial activity; +: With antimicrobial activity; ++: With strong antimicrobial activity; +++: With very strong antimicrobial activity; details: for Antimicrobial activity after pH treatment: 30°C
Description: as §1
Each peptide was redissolved and prepared in the following buffer; Sodium acetate-acetic acid (50 mM, pH4.0), Sodium phosphate (50 mM, pH7.4), glycine-NaOH (50 mM, pH10.0). The test solution thus prepared at the above-specified pH was incubated at 30°C. The duration of the incubation was 0 hours, 0.5 hours, 2 hours, 4 hours, 6 hours, and 24 hours, and at the completion of the incubation, TFA was added in a final concentration of 0.2%. […] By the same spot-on-lawn method as adopted in the above-mentioned antimicrobial activity test, the polypeptide was added in drops to form a growth inhibition circle of L. sakei, and thereby the antimicrobial activity of the polypeptide after pH treatment was evaluated. As a positive control (PC), culture supernatant of a nisin A-producing lactic acid bacterium (Lactococcus lactis ATCC-11454 strain) was used. A sample that was prepared solely with a 0.2% TFA aqueous solution was used as an untreated control.
as §2

“nisin A (I[Dhb′]SI[Dha]LCTPGCKTGALMGCNMKTATCHCSIHV[Dha]K; thioether (positions not given here); not fully specified (some residues, bridges); also: lanthionine thioether crosslinks and dehydro residues, not placed; UniProt P13068 24-57, looked up) [Nisin from Lactococcus lactis 2.5% (Sigma-Aldrich) used after concentration and purification; known antimicrobial peptide]” was tested, and the “Antimicrobial activity after heat treatment” value (L. sakei [1]; 10 µM, 80°C 10 mm) was “+”, the “Antimicrobial activity after heat treatment” value (L. sakei [1]; 10 µM, 80°C 30 min) was “-” and the “Antimicrobial activity after heat treatment” value (L. sakei [1]; 10 µM, 100°C 10 min) was “-”. For the same substance, the “Antimicrobial activity after heat treatment” value (L. sakei [1]; 10 µM, 100°C 30 min) was “-”, the “Antimicrobial activity after heat treatment” value (L. sakei [1]; 10 µM, 121°C 15 min) was “-” and the “Antimicrobial activity, Untreated” value (L. sakei [1]; 10 µM, sample without the heat process) was “++”. For the same substance, the “thermal stability of antimicrobial activity” value (L. sakei [1]; any heat treatment beyond 80°C for 10 minutes) was “lost its antimicrobial activity”, the “thermal stability of antimicrobial activity” value (L. sakei [1]; heat treatment at 80°C for 10 minutes) was “retained its activity” and the “Antimicrobial activity, Before oxidation treatment” value (L. sakei [2]; 1 µM) was “+”. The “Antimicrobial activity, Before oxidation treatment” value (L. sakei [2]; 10 µM) was “++”, the “Antimicrobial activity, After oxidation treatment” value (L. sakei [2]; diluted to 1 µM) was “-” and the “Antimicrobial activity, After oxidation treatment” value (L. sakei [2]; diluted to 10 µM) was “-”. For the same substance, the “oxidation stability of antimicrobial activity” value (L. sakei [2]; result in words, after oxidation treatment with 10-mM hydrogen peroxide) was “lost its antimicrobial activity”, the “Antimicrobial activity after pH treatment” value (L. sakei [3]; 10 µM, pH 4.0, 0 hr) was “++” and the “Antimicrobial activity after pH treatment” value (L. sakei [3]; 10 µM, pH 4.0, 0.5 hr) was “++”. The “Antimicrobial activity after pH treatment” value (L. sakei [3]; 10 µM, pH 4.0, 2 hr) was “++”, the “Antimicrobial activity after pH treatment” value (L. sakei [3]; 10 µM, pH 4.0, 4 hr) was “+” and the “Antimicrobial activity after pH treatment” value (L. sakei [3]; 10 µM, pH 4.0, 6 hr) was “+”. For the same substance, the “Antimicrobial activity after pH treatment” value (L. sakei [3]; 10 µM, pH 4.0, 24 hr) was “+”, the “Antimicrobial activity after pH treatment” value (L. sakei [3]; 10 µM, pH 7.4, 0 hr) was “-” and the “Antimicrobial activity after pH treatment” value (L. sakei [3]; 10 µM, pH 7.4, 0.5 hr) was “-”. For the same substance, the “Antimicrobial activity after pH treatment” value (L. sakei [3]; 10 µM, pH 7.4, 2 hr) was “-”, the “Antimicrobial activity after pH treatment” value (L. sakei [3]; 10 µM, pH 7.4, 4 hr) was “-” and the “Antimicrobial activity after pH treatment” value (L. sakei [3]; 10 µM, pH 7.4, 6 hr) was “-”. For the same substance, the “Antimicrobial activity after pH treatment” value (L. sakei [3]; 10 µM, pH 7.4, 24 hr) was “-”, the “Antimicrobial activity after pH treatment” value (L. sakei [3]; 10 µM, pH 10.0, 0 hr) was “-” and the “Antimicrobial activity after pH treatment” value (L. sakei [3]; 10 µM, pH 10.0, 0.5 hr) was “+”. For the same substance, the “Antimicrobial activity after pH treatment” value (L. sakei [3]; 10 µM, pH 10.0, 2 hr) was “-”, the “Antimicrobial activity after pH treatment” value (L. sakei [3]; 10 µM, pH 10.0, 4 hr) was “-” and the “Antimicrobial activity after pH treatment” value (L. sakei [3]; 10 µM, pH 10.0, 6 hr) was “-”. The “Antimicrobial activity after pH treatment” value (L. sakei [3]; 10 µM, pH 10.0, 24 hr) was “-”, the “Antimicrobial activity, Untreated” value (L. sakei [3]; 10 µM, untreated control prepared solely with 0.2% TFA aqueous solution) was “++” and the “pH stability of antimicrobial activity” value (L. sakei [3]; result in words, neutral range and alkaline range) was “lost its antimicrobial activity”.

Source: patent EP4428145A1, “ANTIBACTERIAL PEPTIDE” (Sumitomo Chemical Company, Limited, priority 2021, dated 2024)
